Literature values as cited in PMC8444577.

Target: IL-18 (Homo sapiens) (UniProt Q14116)
Sequence (Q14116 37-193): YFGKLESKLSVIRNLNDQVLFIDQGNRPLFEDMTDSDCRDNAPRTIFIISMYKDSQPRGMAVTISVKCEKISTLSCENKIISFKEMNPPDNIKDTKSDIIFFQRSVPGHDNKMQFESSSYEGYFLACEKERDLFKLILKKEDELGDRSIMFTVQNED

IL-18BP, sequence (O95998 31-194): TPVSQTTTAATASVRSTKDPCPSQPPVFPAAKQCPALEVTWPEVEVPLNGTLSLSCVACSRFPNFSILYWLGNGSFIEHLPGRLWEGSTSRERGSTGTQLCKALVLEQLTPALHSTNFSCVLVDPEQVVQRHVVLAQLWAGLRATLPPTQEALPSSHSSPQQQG

In the case of IL-18BP (from UniProt O95998), the Kd is listed as 0.4 nM.
